In the supplement of paper PMC10065799, “High-throughput profiling of sequence recognition by tyrosine kinases and SH2 domains using bacterial peptide display” (eLife, 2023):

Tested on: AncSZ
Assay: phosphorylation enrichment, bacterial display (enrichment ratio); higher = better substrate or ligand; peptides without Tyr show the background
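Further: 11-residue human phosphosite peptides and single-mutation variants displayed on the E. coli surface, counted by deep sequencing, each peptide's frequency after selection divided by its frequency in the unselected input library; frequency after pTyr selection over input frequency; kinase dosed for 20-30% of maximal phosphorylation in three min.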

Sequence	phosphorylation enrichment
SHMVDYQPFRK [TEX37_Y25_YF]	0.564
PGLSSYGVPGS [FLNB_Y1530_A1534G]	0.774
AKLNIYKRKVE [VWA3B_Y918]	0.486
NPETCYQKLKK [TK2_Y190_R192K]	0.906
LREKVYASLEA [RXRA_Y397]	1.63
TSAEGYQDVRD [ABLIM1_Y439_P434T]	1.17
VRTSKYRGGGG [HBA1_Y141_L137R]	0.64
IKETHYMVDRC	0.992
AQVDTYCRHNY [HLA-DRB1_Y107_A103Q]	0.752
GGGMFYPLDLF	0.942
LLRFLYFFVCS [SLC34A2_Y109_G106R]	0.948
PGVNFYFQVSA	1.41
DSILVYQGKEQ [USH2A_Y1909]	0.717
ADCRFYTFPQM [GAMT_Y223_A224T_YF]	1.88
KFADVYVGICL [B3GALNT1_Y269_E266A]	1.46
SSDKVYAHQMV [MLH1_Y379]	0.551

Molecular target: EPHB1 (UniProt P54762)
Sequence (P54762 whole entry, looked up): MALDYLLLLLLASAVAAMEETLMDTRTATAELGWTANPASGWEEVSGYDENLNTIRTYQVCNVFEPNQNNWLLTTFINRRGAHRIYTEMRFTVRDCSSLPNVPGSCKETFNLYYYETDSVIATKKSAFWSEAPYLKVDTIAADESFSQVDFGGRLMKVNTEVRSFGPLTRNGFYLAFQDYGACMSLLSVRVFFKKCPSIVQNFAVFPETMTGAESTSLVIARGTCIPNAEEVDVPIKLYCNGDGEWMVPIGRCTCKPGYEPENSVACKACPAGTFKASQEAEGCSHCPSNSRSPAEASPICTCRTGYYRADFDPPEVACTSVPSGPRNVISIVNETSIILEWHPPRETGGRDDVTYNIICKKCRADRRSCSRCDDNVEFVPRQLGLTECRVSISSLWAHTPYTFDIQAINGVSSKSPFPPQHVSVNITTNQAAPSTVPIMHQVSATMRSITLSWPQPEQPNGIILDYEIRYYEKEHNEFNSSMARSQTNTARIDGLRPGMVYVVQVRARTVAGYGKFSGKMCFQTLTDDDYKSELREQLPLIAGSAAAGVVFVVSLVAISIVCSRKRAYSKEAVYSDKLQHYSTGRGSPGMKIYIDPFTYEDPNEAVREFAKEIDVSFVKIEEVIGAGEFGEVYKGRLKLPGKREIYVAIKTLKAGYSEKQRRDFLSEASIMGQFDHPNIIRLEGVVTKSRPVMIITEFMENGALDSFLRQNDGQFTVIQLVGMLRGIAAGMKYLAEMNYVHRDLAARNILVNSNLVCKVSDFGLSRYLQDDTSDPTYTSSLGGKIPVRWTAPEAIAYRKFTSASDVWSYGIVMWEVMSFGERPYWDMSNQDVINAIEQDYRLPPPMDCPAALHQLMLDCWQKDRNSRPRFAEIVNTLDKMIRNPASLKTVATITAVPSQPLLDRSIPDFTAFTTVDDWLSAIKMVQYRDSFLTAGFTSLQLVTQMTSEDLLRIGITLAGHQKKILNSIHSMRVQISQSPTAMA
Assay: as above

Sequence	phosphorylation enrichment
SHMVDYQPFRK [TEX37_Y25_YF]	0.549
PGLSSYGVPGS [FLNB_Y1530_A1534G]	0.494
AKLNIYKRKVE [VWA3B_Y918]	0.309
NPETCYQKLKK [TK2_Y190_R192K]	0.583
LREKVYASLEA [RXRA_Y397]	0.823
TSAEGYQDVRD [ABLIM1_Y439_P434T]	0.73
VRTSKYRGGGG [HBA1_Y141_L137R]	0.366
IKETHYMVDRC	0.472
AQVDTYCRHNY [HLA-DRB1_Y107_A103Q]	0.536
GGGMFYPLDLF	0.503
LLRFLYFFVCS [SLC34A2_Y109_G106R]	0.606
PGVNFYFQVSA	1.27
DSILVYQGKEQ [USH2A_Y1909]	0.451
ADCRFYTFPQM [GAMT_Y223_A224T_YF]	1.07
KFADVYVGICL [B3GALNT1_Y269_E266A]	0.846
SSDKVYAHQMV [MLH1_Y379]	0.404

Molecular target: EPHB2 (UniProt P29323)
Sequence (P29323 whole entry, looked up): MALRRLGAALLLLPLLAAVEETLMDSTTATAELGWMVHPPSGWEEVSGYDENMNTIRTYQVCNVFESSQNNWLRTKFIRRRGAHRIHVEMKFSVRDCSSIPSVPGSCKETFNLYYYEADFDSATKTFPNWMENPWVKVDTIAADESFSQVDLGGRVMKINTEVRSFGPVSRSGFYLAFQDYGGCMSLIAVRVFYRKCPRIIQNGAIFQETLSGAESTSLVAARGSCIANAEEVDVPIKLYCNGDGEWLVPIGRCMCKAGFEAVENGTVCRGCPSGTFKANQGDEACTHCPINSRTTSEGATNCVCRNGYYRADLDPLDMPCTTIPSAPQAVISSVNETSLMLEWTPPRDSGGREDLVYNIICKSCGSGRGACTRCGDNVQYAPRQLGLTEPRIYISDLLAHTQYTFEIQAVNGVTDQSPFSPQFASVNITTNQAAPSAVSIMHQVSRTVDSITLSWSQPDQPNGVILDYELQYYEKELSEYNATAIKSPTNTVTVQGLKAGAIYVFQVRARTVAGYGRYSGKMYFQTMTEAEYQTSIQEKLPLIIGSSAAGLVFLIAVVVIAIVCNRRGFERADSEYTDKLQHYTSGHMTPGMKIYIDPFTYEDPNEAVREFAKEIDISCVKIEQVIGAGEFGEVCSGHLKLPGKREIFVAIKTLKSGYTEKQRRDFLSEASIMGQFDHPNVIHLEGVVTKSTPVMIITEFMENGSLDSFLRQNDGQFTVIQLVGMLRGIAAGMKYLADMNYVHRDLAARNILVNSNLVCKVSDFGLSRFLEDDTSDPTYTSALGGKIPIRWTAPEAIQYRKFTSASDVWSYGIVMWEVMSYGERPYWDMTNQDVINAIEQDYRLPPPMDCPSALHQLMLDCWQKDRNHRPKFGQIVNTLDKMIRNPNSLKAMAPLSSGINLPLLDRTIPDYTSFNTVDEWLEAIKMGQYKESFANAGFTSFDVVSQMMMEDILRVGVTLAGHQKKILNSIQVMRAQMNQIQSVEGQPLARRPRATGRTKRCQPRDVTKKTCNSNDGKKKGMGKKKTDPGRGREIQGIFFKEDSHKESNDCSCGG
Assay: as above

Sequence	phosphorylation enrichment
SHMVDYQPFRK [TEX37_Y25_YF]	0.445
PGLSSYGVPGS [FLNB_Y1530_A1534G]	0.578
AKLNIYKRKVE [VWA3B_Y918]	0.305
NPETCYQKLKK [TK2_Y190_R192K]	0.451
LREKVYASLEA [RXRA_Y397]	0.862
TSAEGYQDVRD [ABLIM1_Y439_P434T]	0.774
VRTSKYRGGGG [HBA1_Y141_L137R]	0.407
IKETHYMVDRC	0.704
AQVDTYCRHNY [HLA-DRB1_Y107_A103Q]	0.47
GGGMFYPLDLF	0.454
LLRFLYFFVCS [SLC34A2_Y109_G106R]	0.585
PGVNFYFQVSA	1.24
DSILVYQGKEQ [USH2A_Y1909]	0.43
ADCRFYTFPQM [GAMT_Y223_A224T_YF]	0.813
KFADVYVGICL [B3GALNT1_Y269_E266A]	0.988
SSDKVYAHQMV [MLH1_Y379]	0.401

Molecular target: FGFR1 (UniProt P11362)
Sequence (P11362 whole entry, looked up): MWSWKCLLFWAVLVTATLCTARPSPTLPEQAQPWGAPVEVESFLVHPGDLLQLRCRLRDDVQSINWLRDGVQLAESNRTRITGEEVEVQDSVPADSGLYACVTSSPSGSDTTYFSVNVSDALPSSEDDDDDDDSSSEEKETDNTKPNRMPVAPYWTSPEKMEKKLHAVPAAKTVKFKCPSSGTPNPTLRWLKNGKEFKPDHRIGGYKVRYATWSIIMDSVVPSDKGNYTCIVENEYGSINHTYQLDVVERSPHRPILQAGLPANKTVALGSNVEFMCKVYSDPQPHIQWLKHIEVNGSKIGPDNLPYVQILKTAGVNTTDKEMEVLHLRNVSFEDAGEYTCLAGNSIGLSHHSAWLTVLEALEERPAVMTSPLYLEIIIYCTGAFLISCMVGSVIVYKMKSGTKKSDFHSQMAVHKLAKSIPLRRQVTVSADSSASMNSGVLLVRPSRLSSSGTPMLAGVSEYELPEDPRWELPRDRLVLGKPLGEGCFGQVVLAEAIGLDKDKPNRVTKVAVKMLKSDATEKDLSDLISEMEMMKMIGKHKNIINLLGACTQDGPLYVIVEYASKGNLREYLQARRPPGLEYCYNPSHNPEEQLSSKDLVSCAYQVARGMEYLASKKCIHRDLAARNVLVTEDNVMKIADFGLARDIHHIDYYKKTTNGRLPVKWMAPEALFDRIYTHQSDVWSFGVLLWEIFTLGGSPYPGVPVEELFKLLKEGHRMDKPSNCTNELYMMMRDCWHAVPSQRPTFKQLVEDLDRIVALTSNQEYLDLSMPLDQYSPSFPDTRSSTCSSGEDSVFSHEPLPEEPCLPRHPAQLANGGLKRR
Assay: as above

Sequence	phosphorylation enrichment
SHMVDYQPFRK [TEX37_Y25_YF]	0.387
PGLSSYGVPGS [FLNB_Y1530_A1534G]	0.623
AKLNIYKRKVE [VWA3B_Y918]	0.331
NPETCYQKLKK [TK2_Y190_R192K]	0.444
LREKVYASLEA [RXRA_Y397]	0.84
TSAEGYQDVRD [ABLIM1_Y439_P434T]	0.77
VRTSKYRGGGG [HBA1_Y141_L137R]	0.423
IKETHYMVDRC	0.555
AQVDTYCRHNY [HLA-DRB1_Y107_A103Q]	0.512
GGGMFYPLDLF	0.405
LLRFLYFFVCS [SLC34A2_Y109_G106R]	0.72
PGVNFYFQVSA	0.557
DSILVYQGKEQ [USH2A_Y1909]	0.434
ADCRFYTFPQM [GAMT_Y223_A224T_YF]	0.584
KFADVYVGICL [B3GALNT1_Y269_E266A]	0.65
SSDKVYAHQMV [MLH1_Y379]	0.379

Molecular target: FGFR3 (UniProt P22607)
Sequence (P22607 whole entry, looked up): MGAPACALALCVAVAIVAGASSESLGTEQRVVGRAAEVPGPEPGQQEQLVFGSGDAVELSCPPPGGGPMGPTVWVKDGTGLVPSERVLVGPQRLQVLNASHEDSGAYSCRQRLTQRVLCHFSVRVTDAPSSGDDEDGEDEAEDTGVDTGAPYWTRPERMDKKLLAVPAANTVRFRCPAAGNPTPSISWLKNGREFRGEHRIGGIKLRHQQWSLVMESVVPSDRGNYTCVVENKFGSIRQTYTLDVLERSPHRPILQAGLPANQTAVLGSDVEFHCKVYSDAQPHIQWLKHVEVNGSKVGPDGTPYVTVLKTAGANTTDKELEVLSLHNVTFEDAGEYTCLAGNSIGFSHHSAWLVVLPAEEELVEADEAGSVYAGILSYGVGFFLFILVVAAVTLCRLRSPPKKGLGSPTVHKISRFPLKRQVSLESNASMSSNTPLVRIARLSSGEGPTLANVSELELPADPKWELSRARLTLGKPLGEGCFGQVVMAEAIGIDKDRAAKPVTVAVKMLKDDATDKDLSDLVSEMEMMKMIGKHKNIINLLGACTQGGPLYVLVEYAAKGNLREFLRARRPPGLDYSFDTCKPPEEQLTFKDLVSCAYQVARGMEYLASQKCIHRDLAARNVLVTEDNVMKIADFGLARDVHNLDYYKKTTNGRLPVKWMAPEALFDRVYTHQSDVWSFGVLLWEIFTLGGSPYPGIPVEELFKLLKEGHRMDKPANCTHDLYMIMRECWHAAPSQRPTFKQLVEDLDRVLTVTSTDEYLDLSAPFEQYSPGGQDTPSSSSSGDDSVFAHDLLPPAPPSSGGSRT
Assay: as above

Sequence	phosphorylation enrichment
SHMVDYQPFRK [TEX37_Y25_YF]	0.464
PGLSSYGVPGS [FLNB_Y1530_A1534G]	0.643
AKLNIYKRKVE [VWA3B_Y918]	0.422
NPETCYQKLKK [TK2_Y190_R192K]	0.774
LREKVYASLEA [RXRA_Y397]	0.944
TSAEGYQDVRD [ABLIM1_Y439_P434T]	0.659
VRTSKYRGGGG [HBA1_Y141_L137R]	0.618
IKETHYMVDRC	0.579
AQVDTYCRHNY [HLA-DRB1_Y107_A103Q]	0.679
GGGMFYPLDLF	0.693
LLRFLYFFVCS [SLC34A2_Y109_G106R]	1.22
PGVNFYFQVSA	1
DSILVYQGKEQ [USH2A_Y1909]	0.533
ADCRFYTFPQM [GAMT_Y223_A224T_YF]	0.895
KFADVYVGICL [B3GALNT1_Y269_E266A]	0.909
SSDKVYAHQMV [MLH1_Y379]	0.416

Tested on: Fer (mouse)
Assay: as above

Sequence	phosphorylation enrichment
SHMVDYQPFRK [TEX37_Y25_YF]	0.294
PGLSSYGVPGS [FLNB_Y1530_A1534G]	0.508
AKLNIYKRKVE [VWA3B_Y918]	0.34
NPETCYQKLKK [TK2_Y190_R192K]	0.509
LREKVYASLEA [RXRA_Y397]	0.892
TSAEGYQDVRD [ABLIM1_Y439_P434T]	0.551
VRTSKYRGGGG [HBA1_Y141_L137R]	0.365
IKETHYMVDRC	0.47
AQVDTYCRHNY [HLA-DRB1_Y107_A103Q]	0.517
GGGMFYPLDLF	0.405
LLRFLYFFVCS [SLC34A2_Y109_G106R]	0.573
PGVNFYFQVSA	0.724
DSILVYQGKEQ [USH2A_Y1909]	0.414
ADCRFYTFPQM [GAMT_Y223_A224T_YF]	1.99
KFADVYVGICL [B3GALNT1_Y269_E266A]	0.978
SSDKVYAHQMV [MLH1_Y379]	0.494

Molecular target: Fes (UniProt P07332)
Sequence (P07332 whole entry, looked up): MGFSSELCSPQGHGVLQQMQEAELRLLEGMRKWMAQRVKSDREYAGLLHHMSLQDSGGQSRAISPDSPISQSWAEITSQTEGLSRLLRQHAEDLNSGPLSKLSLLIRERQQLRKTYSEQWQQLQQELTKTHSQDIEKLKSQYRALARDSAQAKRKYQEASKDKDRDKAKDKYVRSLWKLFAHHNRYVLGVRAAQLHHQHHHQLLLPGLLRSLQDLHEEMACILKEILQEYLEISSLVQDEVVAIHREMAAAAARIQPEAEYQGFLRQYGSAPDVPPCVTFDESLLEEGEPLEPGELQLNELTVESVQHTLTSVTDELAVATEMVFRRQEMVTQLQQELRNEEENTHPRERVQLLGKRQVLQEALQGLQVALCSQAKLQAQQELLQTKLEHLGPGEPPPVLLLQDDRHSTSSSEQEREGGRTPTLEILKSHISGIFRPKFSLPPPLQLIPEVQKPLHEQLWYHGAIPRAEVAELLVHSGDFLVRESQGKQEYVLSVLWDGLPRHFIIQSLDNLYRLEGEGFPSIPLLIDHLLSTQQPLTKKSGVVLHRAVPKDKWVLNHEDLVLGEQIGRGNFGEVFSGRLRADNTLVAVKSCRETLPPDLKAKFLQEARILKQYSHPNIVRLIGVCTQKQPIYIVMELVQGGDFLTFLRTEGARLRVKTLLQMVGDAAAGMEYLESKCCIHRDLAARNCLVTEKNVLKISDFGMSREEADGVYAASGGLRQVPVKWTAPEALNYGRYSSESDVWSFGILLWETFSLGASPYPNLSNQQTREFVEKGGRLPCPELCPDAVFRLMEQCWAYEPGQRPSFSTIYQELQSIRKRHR
Assay: as above

Sequence	phosphorylation enrichment
SHMVDYQPFRK [TEX37_Y25_YF]	0.705
PGLSSYGVPGS [FLNB_Y1530_A1534G]	0.786
AKLNIYKRKVE [VWA3B_Y918]	0.504
NPETCYQKLKK [TK2_Y190_R192K]	1.07
LREKVYASLEA [RXRA_Y397]	1.9
TSAEGYQDVRD [ABLIM1_Y439_P434T]	1.36
VRTSKYRGGGG [HBA1_Y141_L137R]	0.676
IKETHYMVDRC	0.992
AQVDTYCRHNY [HLA-DRB1_Y107_A103Q]	0.866
GGGMFYPLDLF	1.1
LLRFLYFFVCS [SLC34A2_Y109_G106R]	1.59
PGVNFYFQVSA	1.93
DSILVYQGKEQ [USH2A_Y1909]	0.761
ADCRFYTFPQM [GAMT_Y223_A224T_YF]	1.48
KFADVYVGICL [B3GALNT1_Y269_E266A]	1.34
SSDKVYAHQMV [MLH1_Y379]	0.573

Molecular target: Fyn (UniProt P06241)
Sequence (P06241 whole entry, looked up): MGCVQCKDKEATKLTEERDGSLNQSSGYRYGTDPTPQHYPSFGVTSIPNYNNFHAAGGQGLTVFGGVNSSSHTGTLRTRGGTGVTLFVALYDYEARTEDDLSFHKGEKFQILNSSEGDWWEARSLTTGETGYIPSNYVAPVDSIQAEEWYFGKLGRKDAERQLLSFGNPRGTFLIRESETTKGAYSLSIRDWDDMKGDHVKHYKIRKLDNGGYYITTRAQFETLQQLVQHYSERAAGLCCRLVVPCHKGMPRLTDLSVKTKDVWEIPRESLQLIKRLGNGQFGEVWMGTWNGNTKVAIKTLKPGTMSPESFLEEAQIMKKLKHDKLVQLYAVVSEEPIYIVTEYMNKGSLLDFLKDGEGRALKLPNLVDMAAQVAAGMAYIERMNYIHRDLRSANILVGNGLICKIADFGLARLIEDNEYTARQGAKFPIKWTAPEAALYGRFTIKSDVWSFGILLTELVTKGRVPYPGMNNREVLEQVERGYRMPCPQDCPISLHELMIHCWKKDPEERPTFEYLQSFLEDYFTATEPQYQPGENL
Assay: as above

Sequence	phosphorylation enrichment
SHMVDYQPFRK [TEX37_Y25_YF]	0.5
PGLSSYGVPGS [FLNB_Y1530_A1534G]	0.598
AKLNIYKRKVE [VWA3B_Y918]	0.53
NPETCYQKLKK [TK2_Y190_R192K]	0.428
LREKVYASLEA [RXRA_Y397]	6.2
TSAEGYQDVRD [ABLIM1_Y439_P434T]	0.679
VRTSKYRGGGG [HBA1_Y141_L137R]	0.426
IKETHYMVDRC	0.455
AQVDTYCRHNY [HLA-DRB1_Y107_A103Q]	0.549
GGGMFYPLDLF	0.453
LLRFLYFFVCS [SLC34A2_Y109_G106R]	0.519
PGVNFYFQVSA	0.414
DSILVYQGKEQ [USH2A_Y1909]	0.433
ADCRFYTFPQM [GAMT_Y223_A224T_YF]	0.811
KFADVYVGICL [B3GALNT1_Y269_E266A]	0.787
SSDKVYAHQMV [MLH1_Y379]	0.538
